Experimental data: the DeepSol protein solubility set

Assay: soluble on expression in E. coli; label from the status in PepcDB or PDB records

| Sequence | soluble on expression in E. coli |
| --- | --- |
| MGSDKIHHHHHHMTEQITPQAFLAGRLLLESEVPSEFLTNKDVITEPSIITENGRYHCRRCCNEHRELFATAPCAWCGNRHCIYCRNCLMLGRVTACRKLVRWKGEPYAFPSHSNVLQWKGTLSHGQRHASLQAVQYWKQKEDHIIWAVCGSGKTEIVFDAVAQSLANGERILLATPRVDVVKELYPRFKQAFPSITITALYGDSPSVFHPAQLVIATTHQTFRFKKAFDFVIVDEVDAFPFSCDQSLQLSVNEARRPLAPILYLSATPSRSLLEQNKRITKVSTRYHGHPLPLPSFVWIGNWRKTVMRRKLPSKLVTWLEKHHRKPVFLFVPSIPVLEQVSAALKQLGYIHDAVHAEDPHRHEKVTRFRDGVTKLLVTTTILERGVTVPRVQVAVLGAEHSVFSEAALVQISGRVGRSHRHPTGDIAFFHYGVSKAMKRCRQQLQQMNREGF | not soluble |
| SGIVPQLQNIVSTVNLGCKLDLKTIALRARNAEYNPKRFAAVIMRIREPRTTALIFSSGKMVCTGAKSEEQSRLAARKYARVVQKLGFPAKFLDFKIQNMVGSCDVKFPIRLEGLVLTHQQFSSYEPELFPGLIYRMIKPRIVLLIFVSGKVVLTGAKVRAEIYEAFENIYPILKGFRKTT | soluble |
| SEWLKSTDYGKYEGLTKNYMDYLSRLYEREIKDFFEVAKIKMTGTTKESKKFGLHGSSGKLTGSTSSLNKLSVQSSGNRRSQSSSLLDMGNMSASDLDVADRTKFDKIFEQVLSELEPLCLAEQDFISKFFKLQQHQSMPGTMAEAEDLDGGTLSRQHNCGTPLPVSSEKDMIRQMMIKIFRCIEPELNNLIALGDKIDSFNSLYMLVKMSHHVWTAQNVDPASFLSTTLGNVLVTVKRNFDKCISNQIRQMEEVKISKKSKVGILPFVAEFEEFAGLAESIFKNAERRGDLDKAYTKLIRGVFVNVEKVANESQKTPRDVVMMENFHHIFATLSRLKISCLEAEKKEAKQKYTDHLQSYVIYSLGQPLEKLNHFFEGVEARVAQGIREEEVSYQLAFNKQELRKVIKEYPGKEVKKGLDNLYKKVDKHLCEEENLLQVVWHSMQDEFIRQYKHFEGLIARCYPGSGVTMEFTIQDILDYCSSIAQSH | soluble |
| KVWWTLPYGPHEDEKNLTLEDWRDRVLDSTREAVAIRQRAAVDVGVLLSGGVDSSMLVGLLREVGVEDLSTFSIGFQDAGGERGDEFQYSDLIAKHYGTRHHQLRIQESEIIEQLPAAFRAMSEPMVSHDCIAFYLLSREVAKHCKVVQSGQGADELFAGYHWYPQVDGASDPVAAYRYAFVDRSYAEYADTVQPKWRTANDAAGDFVRDHFAQPGASAAVDKALRLDSTVMLVDDPVKRVDNMTMAWGLEARTPFLDYRLVELSARIPGKFKLPDGGKQVLKEAARLVIPSEVIDRKKGYFPVPGLKHLQGDTLNWVRELLTDPSQDRGLFNPTMVDKLLTNPEGQLTPLRGSKLWQLAALNLWLSEQ | not soluble |
| LGQTTERYKSVIESMIEGIIIIDLEGKIIDHNKAATQIIGYEDLVLIGNDFSLGPGEAIREDETKFPFEEFPGIKTLRTGMPYKNVILGWIIPGKDTIWLSINSEPVKNENGEQVAVVCSYSDVT | not soluble |
| MSLQGQIDIPLDIVGRWQADQSAYELAKTYYWAKVAHLAEHNDQLAQPTYEGAHLADISEINNAPATARRMLVVSSDLFRAQQTAHAFADLMGLDVELDPRLRERSFGEWEGMTREEICEHYADDYHSWRAHTGGETKHGVESRIHTGRRGAEAVRDIVAKHHDETMPTTLLLVGHGSWIVATVAVLLDMDPDDLNNVGAMRNAFWTRMTPHTDPRNADRPTWKLEEFNQGPAIASEGHHHHHH | soluble |
| MSLALVYSRALSGMNAPLVEVEAHLANGLPHFNIVGLPDMEVKESRDRVRAAIIQSGFEFPAKKITVNLAPADLPKESGRFDLPIAIGILAASGQVAPEKLEEYEFAGELALSGLLRPVRGALAMAWQGMQAKRAFVLPEENAGQAAVMRGITVYGARSLGEVAAHLNGIEPLAQTECQVPQMPFEHGGQPDLCDVKGQHTARLALEIAAAGGHSLLMMGPPGTGKSMLSQRLPGILPPLTEDELVEVWALRSLLPNHQQQLDSNRPFRSPHHSASAAAMVGGGSDPRPGEISLAHHGVLFLDELPEFDRKVLEVLREPLENGEIHISRAARQAVYPAKFQLVAAMNPCPCGYLGHPVKPCRCTPESVARYRSKISGPLLDRIDLTIEVPSLSAAELMQQEAGESSASVLERVIAARDKQYARQGKVNAALSVSELDTSARIQKEAQEALGGLLEKLSLSARSFHRIMRVARTLADLAGDEEVGRSHVMKAIGFRRAL | not soluble |
| MSLSALFCQAAAVAVTISGFAFSPAQTTVQVGDVITWTNMDNTLHSIVSTAVPAGAAPFTSGTFGKNETFTYTVTEAGDYTYQCGVHTSMLGAFTATITTPVVKPTLILEALYPNPASASIHIESPKSIKSIDIYSETGVLVKTLAFTSASVDVPIGELNKGAYLLRITSEDGMFDTRRIIKEGHHHHHH | soluble |
| MGSDKIHHHHHHMRIEVWGGAGEYGRSCYFVKNKETKILFDCGINRSYEDSYPKIEREVVPFLDAVFLSHIHEDHTMGLPLLAKYGYKKKIWTTRYTKEQLPAYYEKWRNYNLAQGWHVPYTDQHVKDLNYVYIDEISNPNEWVQITPTLRFQWGYSGHVLGAVWFLLDMSHTYVFYSGDYSAESNILRANLPEKLHGDIKVAIVDAAYHTDDVSQHERINELCTEIERAAGNKGITLLPLPPLGRAQDIVLYLYKKYKELPIIVDQEILDGFQQMFAYKDWIKNNEELEELMESLKRNIIVMDDDSGTQHSYGIVVMSDANMQTKRAQLYYEQLRHDERNSIIFTGHIAKGSFAEKVLKERVGKECRVKRVPYKVHQSIRDVKEMLNTLSPEHTVLVHALKEDTDRLQKKLSTAGYENVYSLTMERIEVI | not soluble |
| MAHHHHHHMGDNILDQKVDLFGGKGIFTKELDEELIKGKVHICVHSLKDVPMELPEQVQLSCFLKRDTINDAFLSVKYGTLEDMNKMKMANKMEEGSYQPKGMSQRVINQNVKRDNYEGDHYDNFIPTIGTSSLRRSSQIKYKYKNVAVKNMRGNINTRIAKLCNGQYDAIIIAKCGLERLTTKKGIRNIIGGKNKVTPKNFLINYNNTEINLTSLHIQQINKRTIYPALCQGIIAVSSHKSDKYISDVLKNINDEKAQIMANIERSFLYQIEGNCMMPIGGYAKIVNGEIVFNAVINDIHGREKYHVREVGKVESYNEIAVMAATKMKEKIGTHRFNKIREEAAQYYA | not soluble |
| MGSDKIHHHHHHACSSEEGGSQAMGGKGAVILDLAAETVFDTKTKAVDESTYLTDRPLADYKVKILDAQGHVVSGCEWKYSERPTGLIELSNGSYTVVASDGEEFNVNASTRNGIYMYGSSRFDVNSDKVAAVNVACKPACGKLVVKFGDTMATYFSDYAVHFSTQAAGENGSIIWPKGDTDPLYVKLAEAGENVTATFQFTKKADGTNAEVNTLTREMKWGSMWTITVNPKVEDTTGKVGITITFDDSTNDKPIDIEIPSDWL | not soluble |
| LSECKTGNGKNYRGTMSKTKNGITCQKWSSTSPHRPRFSPATHPSEGLEENYCRNPDNDPQGPWCYTTDPEKRYDYCDILECEEECMH | soluble |
| MNVIYPLAVPKGRRLCCEVCEAPAERVCAACTVTYYCGVVHQKADWDSIHEKICQLLIPLRTSMPFYNSEEERQHGLQQLQQRQKYLIEFCYTIAQKYLFEGKHEDAVPAALQSLRFRVKLYGLSSVELVPAYLLLAEASLGLGRIVQAEEYLFQAQWTVLKSTDCSNATHSLLHRNLGLLYIAKKNYEEARYHLANDIYFASCAFGTEDIRTSGGYFHLANIFYDLKKLDLADTLYTKVSEIWHAYLNNHYQVLSQAHIQQMDLLGKLFENDTGLDEAQEAEAIRILTSILNIRESTSDKAPQKTIFVLKILVMLYYLMMNSSKAQEYGMRALSLAKEQQLDVHEQSTIQELLSLISTEDHPIT | soluble |
| NKYDWFEFFLNCGVDVSNCQRYTINFDREQLTEDMMPDINNSMLRTLGLREGDIVRVMKHLDKKFGRENIAS | soluble |
| LASIFVDVSSVEPGVQLTVKFLGKPIFIRRRTEADIELGRSVQLGQLVDTNARNANIDAGAEATDQNRTLDEAGEWLVMWGVCTHLGCVPIGGVSGDFGGWFCPCHGTHYDSAGRIRKGPAPENLPIPLAKFIDETTIQLG | soluble |
